Source: the supplement of paper PMC9732359
± gives the uncertainty stated by the source.

Experiment: protein stability index of a GFP-peptide fusion (yeast GPS) (PSI 1-4); higher = more stable; sorted into four equal gates, so the index is relative within each strain
In short: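 The protein stability index of a peptide was calculated by multiplying its read frequency in each gate by that gate's number and adding the products. The peptides were tiled 17-residue stretches of yeast proteins, fused downstream of GFP on a Cherry-expressing plasmid and carried in yeast as a pooled library. Mid-log cultures in leucine-free medium were sorted into four equal gates by GFP/Cherry ratio, and each gate's plasmids were PCR-amplified and Illumina-sequenced.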

| Sequence | protein stability index (doa10∆) | protein stability index (pdr5∆) | protein stability index (san1∆) | protein stability index (ubr1∆) |
| --- | --- | --- | --- | --- |
| VFYAPNVKNYSTTQEIL [RPC34] | 2.4 ± 0.1 | 1.97 ± 0.071 | 3.02 ± 0.082 | 2.06 ± 0.048 |
| IRLSKILEDDFAVALKN [CDC53] | 3.19 ± 0.15 | 3.16 ± 0.14 | 3.04 ± 0.072 | 3.04 ± 0.08 |
| NDLQSETKTKKEKIKGL [SMC4] | 3.32 ± 0.2 | 3.25 ± 0.25 | – | 3.5 ± 0.12 |
| SFILYYRRALQSSESFD [YML103C/NUP188] | 1.79 ± 0.055 | 2.11 ± 0.067 | 1.98 ± 0.072 | 2.27 ± 0.052 |
| SSNPNSSLHSPTSDEPV [SRB4] | 3.09 ± 0.13 | 2.99 ± 0.079 | 2.99 ± 0.063 | 3.15 ± 0.058 |
| PKNLSTPSTSSNGEFIP [CSE2] | 2.83 ± 0.049 | 2.87 ± 0.045 | 2.79 ± 0.039 | 2.93 ± 0.043 |
| SPQAVSSFVRQELAKSI [PRE1] | 2.33 ± 0.11 | 2.33 ± 0.072 | 2.1 ± 0.19 | 2.31 ± 0.059 |
| EDDDIRSRMLPTITLDD [SNF5] | 2.46 ± 0.15 | 3.07 ± 0.18 | – | 3.44 ± 0.14 |
| KKCPFTGLVSIRGKILT [RPS11A] | 1.7 ± 0.058 | 1.53 ± 0.06 | 1.47 ± 0.12 | 1.88 ± 0.055 |
| SLQSSSQTQLENANAAN [MED2] | 1.96 ± 0.075 | 2.6 ± 0.056 | 2.64 ± 0.091 | 1.33 ± 0.035 |
| KHLEDNTLLISGPFKVN [RPL6A] | 1.83 ± 0.085 | 2.01 ± 0.072 | 1.63 ± 0.13 | 2.14 ± 0.048 |
| ILDAICFVLGIASMSTV [SMC2] | 1.45 ± 0.046 | 1.77 ± 0.054 | 1.78 ± 0.067 | 1.67 ± 0.06 |
| AAKTRSYNWGAKAKRRH [RPL37A] | 3.7 ± 0.15 | 3.39 ± 0.082 | 3 ± 0.099 | 3.49 ± 0.085 |
| ETLAYNSLKETLQDFHL [SNF2] | 2.88 ± 0.054 | 3.04 ± 0.058 | 2.61 ± 0.055 | 2.7 ± 0.042 |
| ESESERKYDLFQNLELE [SMC2] | 3.37 ± 0.074 | 3.33 ± 0.077 | 3.35 ± 0.068 | 3.3 ± 0.072 |
| LQDLISVYGLDDISRQV [ROX3] | 2.69 ± 0.077 | 2.88 ± 0.086 | 2.84 ± 0.12 | 3.21 ± 0.051 |
| QDRQQLLPLVVSNISCL [ECM29] | 1.38 ± 0.046 | 1.38 ± 0.036 | 1.29 ± 0.074 | 1.29 ± 0.034 |
| LAVTNLLIISCIIFITF [YML031W/NDC1] | 1.34 ± 0.034 | 1.53 ± 0.034 | 1.42 ± 0.061 | 1.55 ± 0.03 |
| MQDPDGIDINTKIFNSV [YCG1] | 2.93 ± 0.21 | 3.04 ± 0.12 | 2.54 ± 0.17 | 2.89 ± 0.068 |
| KDIRSTLASLIRYNSVE [RPC82] | 2.67 ± 0.14 | 2.13 ± 0.086 | 2.67 ± 0.12 | 2.45 ± 0.11 |
| LTNDTFEKKLSIIKAKL [YML103C/NUP188] | 2.8 ± 0.11 | 2.99 ± 0.23 | 2.43 ± 0.21 | 3.3 ± 0.19 |
| FTNVPLNLEQVTLNKYC [YJL039C/NUP192] | 1.99 ± 0.047 | 1.99 ± 0.045 | 1.92 ± 0.077 | 2.14 ± 0.045 |
| RAYMRPLGVILTFVSVD [SCL1] | 1.74 ± 0.049 | 1.81 ± 0.044 | 2.05 ± 0.083 | 2.16 ± 0.04 |
| YWYFLQKLHKVKKASGE [RPL20A] | 3.1 ± 0.093 | 2.86 ± 0.068 | 3.13 ± 0.049 | 2.97 ± 0.063 |
| SKSENPVLSTIAFLVGL [SWI3] | 3.01 ± 0.11 | 2.54 ± 0.085 | 2.26 ± 0.1 | 2.43 ± 0.057 |
| IQYVTYLLTQQQIWKSP [SOH1] | 2.16 ± 0.056 | 2.07 ± 0.057 | 1.71 ± 0.074 | 2.09 ± 0.047 |

| Sequence | protein stability index (doa10∆) | protein stability index (pdr5∆) | protein stability index (san1∆) | protein stability index (ubr1∆) |
| --- | --- | --- | --- | --- |
| DEKEKQLAVANEIIRSL [SIR4] | 2.3 ± 0.048 | 2.25 ± 0.047 | 2.31 ± 0.069 | 1.91 ± 0.047 |
| EIGILDHVDGSSEFVSQ [RRP46] | 1.69 ± 0.067 | 2.01 ± 0.059 | 2.24 ± 0.065 | 2.5 ± 0.064 |
| LAKSGSTEETTANTGTI [TAF14] | 2.61 ± 0.08 | 2.27 ± 0.089 | 2.19 ± 0.14 | 2.39 ± 0.091 |
| AAREKKIRELEAELSST [YIL149C/MLP2] | 2.46 ± 0.29 | 3.25 ± 0.25 | – | 2.89 ± 0.15 |
| FTRIFLPIYDSLMSSQN [SIR3] | 2.24 ± 0.045 | 2.05 ± 0.038 | 1.99 ± 0.074 | 2.21 ± 0.037 |
| NYAMTRNILHNTVPQVT [SRB5] | 1.7 ± 0.055 | 2.15 ± 0.061 | 1.66 ± 0.08 | 1.74 ± 0.038 |
| GNLIGVDPFDSDEEESV [SNU114] | 3.03 ± 0.075 | 3.14 ± 0.059 | 3 ± 0.057 | 3.2 ± 0.054 |
| MTTWRKLYTKELSVTGS [YMR129W/POM152] | 2.06 ± 0.078 | 1.34 ± 0.072 | 1.41 ± 0.14 | 1.14 ± 0.04 |
| FSFGAKPAEKNNNETSK [YJL041W/NSP1] | – | 2.52 ± 0.24 | – | 3.08 ± 0.24 |
| QKMAELEAARSEKQNDE [PRP8] | 1.75 ± 0.11 | 1.76 ± 0.085 | 2.23 ± 0.26 | 1.8 ± 0.09 |
| QELISKAFTNWNKRDFM [ISW2] | 2.27 ± 0.14 | 3.55 ± 0.23 | 1.59 ± 0.15 | 2.89 ± 0.25 |
| QVDKVTKEKVNGASVPI [RPL26A] | 3.1 ± 0.077 | 3.3 ± 0.11 | 2.86 ± 0.097 | 3.08 ± 0.046 |
| PGPYPNEQAARAANQGA [CYT1] | 2.35 ± 0.053 | 2.68 ± 0.045 | 2.33 ± 0.059 | 2.3 ± 0.05 |
| NSASNNGNLTSNQLISN [SWI1] | 1.96 ± 0.084 | 2.14 ± 0.078 | 2.45 ± 0.11 | 2.75 ± 0.056 |
| IIFEIEKPLVVPVKLEE [RRP6] | 1.88 ± 0.079 | 2.28 ± 0.071 | 2.21 ± 0.12 | 2.14 ± 0.073 |
| TAGNWVASQTVKKVIEI [PRE2] | 3.18 ± 0.12 | 3.35 ± 0.084 | 2.77 ± 0.069 | 3.23 ± 0.081 |
| IMNELYRMKGGRVTFIP [SMC3] | 2.12 ± 0.23 | – | – | 3.66 ± 0.16 |
| PKLESVKWQYDPNNPVD [SNF12] | 2.38 ± 0.059 | 2.81 ± 0.055 | 2.21 ± 0.067 | 2.55 ± 0.031 |
| KFTIEPGVLPVGIDTHT [SNF2] | 2.75 ± 0.12 | 2.61 ± 0.14 | 3 ± 0.14 | 2.73 ± 0.068 |
| LERARDVNIVNRRLVYS [YCG1] | 2.44 ± 0.27 | – | 1.72 ± 0.29 | 1.66 ± 0.13 |
| GTPLQNNLHELWALLNF [ISW2] | 2.76 ± 0.045 | 2.55 ± 0.051 | 2.35 ± 0.05 | 2.76 ± 0.041 |
| HGILDDLETSLSQSSSY [MED2] | 2.98 ± 0.083 | 3.33 ± 0.1 | 3.12 ± 0.099 | 3.29 ± 0.14 |
| ASITGTGSNDRCIGDSD [YMR129W/POM152] | 3.11 ± 0.083 | 2.78 ± 0.12 | 2.35 ± 0.11 | 2.88 ± 0.1 |
| CRVDFKNPHDIIEGINA [RPL12A] | 2.19 ± 0.07 | 2.45 ± 0.072 | 1.83 ± 0.12 | 2.43 ± 0.05 |
| SQLKKTKAQQKTAEQIA [RPL7B] | 2.9 ± 0.085 | 2.92 ± 0.11 | 2.95 ± 0.067 | 2.86 ± 0.048 |
| KLITTYISLLKLQGLYE [YDL116W/NUP84] | 2.23 ± 0.059 | 1.82 ± 0.061 | 1.66 ± 0.072 | 1.72 ± 0.052 |
